Experimental data as given in article PMC11359615, “Evaluation of ABD-Linked RM26 Conjugates for GRPR-Targeted Drug Delivery” (ACS Omega, 2024).
Non-standard residues stand in square brackets, D forms with d. maleimide‑DOTA = DOTA attached via maleimide to the Cys thiol; Sta = CC(C)C[C@H](N)[C@@H](O)CC(=O)O; PEG4 = NCCOCCOCCOCCOCCC(=O)O

B1: ABD-Cys14 control (recombinant ABD035 with N-terminal MEDANS, a Cys, a C-terminal Sortase A recognition sequence and a His-tag) (designed binder)
chain: MEDANSLAEAKVLANRELDKYGVSDFYCRLINKAKTVEGVEALKLHILAALPVDGSGSGSLPETGG
notes: also called ABD control; MEDANS-ABD; source: E. coli BL21 (DE3)*, purified (IMAC, HisPur Cobalt resin)
B2: ABD (albumin-binding domain; recombinant ABD035 with N-terminal MEDANS, a Cys and a C-terminal Sortase A recognition sequence and His-tag) (designed binder)
chain: B1 chain
notes: also called ABD control; unconjugated ABD; source: E. coli BL21 (DE3)*, purified (IMAC, HisPur Cobalt resin); not shown: His6, C-terminal, kept
B3: ABD-RM26 Gen 2A conjugate (designed binder)
chain: MEDANSLAEAKVLANRELDKYGVSDFYC(maleimide‑DOTA)RLINKAKTVEGVEALKLHILAALPVDGSGSGSLPETGGG[PEG4][dF]QWAVGH[Sta]L-NH2
modifications: numbers in words are those of the source; also: DOTA loaded with 111In in cell assays

Columns and labels:
human serum albumin [1] = target: T1, human serum albumin (human, UniProt P02768 25-609); test: SPR; Biacore 8K; HSA immobilised on a CM5 chip by amine coupling (1250 RU); constructs at 50, 25, 12.5, 6.25 and 3.125 nM flowed at 30 uL/min in PBS-T (PBS + 0.05% Tween-20, pH 7.4); 150 s association, 3000 s dissociation; 1:1 Langmuir fit; details: both partners purified
T1 construct: human serum albumin (HSA), immobilised by amine coupling; also called HSA

human serum albumin [2] = target: T2, human serum albumin (human, UniProt P02768 25-609); test: SPR; Biacore 8K; HSA amine-coupled on CM5 chip (1250 RU); constructs at 50, 25, 12.5, 6.25 and 3.125 nM flowed over at 30 uL/min in PBS-T pH 7.4; 150 s association, 3000 s dissociation; 1:1 Langmuir fit; details: both partners purified
T2 construct: human serum albumin; also called HSA

[3] = target: T3, gastrin-releasing peptide receptor (human (endogenous in PC-3), UniProt P30550 1-384); test: radioligand binding; real-time binding kinetics of 111In-labelled conjugates on living GRPR-expressing PC-3 cells; conditions in the Supporting Information; details: one partner purified
T3 construct: gastrin-releasing peptide receptor on GRPR-expressing PC-3 cells; also called GRPR; source: endogenous, on living PC-3 cells
T3 sequence (P30550 whole entry): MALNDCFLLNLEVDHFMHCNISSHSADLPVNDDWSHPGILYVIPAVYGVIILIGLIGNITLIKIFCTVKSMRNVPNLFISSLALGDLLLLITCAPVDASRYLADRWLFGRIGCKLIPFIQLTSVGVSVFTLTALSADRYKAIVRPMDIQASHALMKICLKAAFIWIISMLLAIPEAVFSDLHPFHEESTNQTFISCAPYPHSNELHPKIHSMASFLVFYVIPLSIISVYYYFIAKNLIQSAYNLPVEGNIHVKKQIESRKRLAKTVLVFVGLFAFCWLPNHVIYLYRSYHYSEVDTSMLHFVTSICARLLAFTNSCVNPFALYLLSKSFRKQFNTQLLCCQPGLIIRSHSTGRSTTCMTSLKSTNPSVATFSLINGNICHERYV

Binder	koff (human serum albumin [1])	kon (human serum albumin [1])	Kd (human serum albumin [2])	Kd [3]	koff [3]	kon [3]
B1	0.00024 s⁻¹	1.8e+07 M⁻¹ s⁻¹	–	–	–	–
B2	–	–	0.013 nM	–	–	–
B3	–	–	0.048 nM	120 ± 140 nM	0.013 s⁻¹	670000 M⁻¹ s⁻¹
